Experimental data from patent publication US10450368 (DUKE UNIVERSITY, dated 2019).

Legend:
Histones [1] = target: T1, Histones; assay: AtheNA, Ab 12.5 ug/ml
T1 construct: Mixture of proteins

RNP (ribonucleoprotein) [2] = target: T2, RNP (ribonucleoprotein); assay: AtheNA, Ab 12.5 ug/ml
T2 construct: Protein-RNA complex

SSA [3] = target: T3, SSA; assay: AtheNA, Ab 12.5 ug/ml
T3 construct: also called SSA (Ro)

Scl-70 [4] = target: T4, Scl-70 (UniProt P11387 1-765); assay: AtheNA, Ab 12.5 ug/ml
T4 sequence: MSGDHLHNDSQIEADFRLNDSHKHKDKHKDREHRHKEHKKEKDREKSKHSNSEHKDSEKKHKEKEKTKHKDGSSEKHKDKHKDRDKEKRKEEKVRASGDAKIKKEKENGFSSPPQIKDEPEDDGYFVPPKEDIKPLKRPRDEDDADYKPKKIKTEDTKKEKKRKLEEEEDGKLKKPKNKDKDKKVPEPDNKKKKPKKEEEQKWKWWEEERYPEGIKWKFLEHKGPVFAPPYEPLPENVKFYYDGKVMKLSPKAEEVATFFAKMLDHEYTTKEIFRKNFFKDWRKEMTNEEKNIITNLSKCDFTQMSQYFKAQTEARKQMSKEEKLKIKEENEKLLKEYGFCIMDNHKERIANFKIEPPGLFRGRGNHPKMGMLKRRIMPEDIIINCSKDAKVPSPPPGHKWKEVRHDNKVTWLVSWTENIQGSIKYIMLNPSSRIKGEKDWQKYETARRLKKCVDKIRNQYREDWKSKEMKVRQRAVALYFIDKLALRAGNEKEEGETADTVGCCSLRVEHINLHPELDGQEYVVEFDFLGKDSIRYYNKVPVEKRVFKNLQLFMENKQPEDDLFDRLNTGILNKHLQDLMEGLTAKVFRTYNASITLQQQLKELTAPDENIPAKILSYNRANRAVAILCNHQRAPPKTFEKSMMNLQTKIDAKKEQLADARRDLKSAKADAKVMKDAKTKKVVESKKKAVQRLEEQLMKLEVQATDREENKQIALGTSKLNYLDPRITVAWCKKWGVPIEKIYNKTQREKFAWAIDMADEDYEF

Sm (Smith antigen) [5] = target: T5, Sm (Smith antigen); assay: AtheNA, Ab 12.5 ug/ml
T5 construct: Protein complex

CH505w136.B18D8gp120 = assay: ELISA
[6] = target: T6, HIV-1 CH505 transmitted/founder gp120 Env (HIV-1); assay: competition ELISA, blocking of CH106 binding to gp120
T6 construct: domain: gp120; also called CH505.TF gp120; CH505 TF gp120 Env

Histones [7] = target: T1, Histones; assay: AtheNA, Ab 50 ug/ml
SSA [8] = target: T3, SSA; assay: AtheNA, Ab 50 ug/ml
Sm (Smith antigen) [9] = target: T5, Sm (Smith antigen); assay: AtheNA, Ab 50 ug/ml
CH505.M19D8gp120 = assay: ELISA
CH505.M9D8gp120/293F = assay: ELISA
CH505.M10D8gp120 = assay: ELISA
CH505.M5D8gp120293F = assay: ELISA
CH505.M11D8gp120/293F = assay: ELISA
CH505.TF mutant gp120 M6 = target: T7, CH505.TF mutant gp120 M6 (HIV-1); assay: ELISA
T7 construct: domain: gp120

CH505.M7D8gp120/293F = assay: ELISA
CH505.TF mutant gp120 M8 = target: T8, CH505.TF mutant gp120 M8 (HIV-1); assay: ELISA
T8 construct: domain: gp120

[10] = target: T9, CH505.TF mutant gp120 M20 (HIV-1); assay: ELISA
T9 construct: domain: gp120

CH505.M21D8gp120/293F = assay: ELISA
Histones [11] = target: T1, Histones; assay: AtheNA, Ab 6.25 ug/ml
RNP (ribonucleoprotein) [12] = target: T2, RNP (ribonucleoprotein); assay: AtheNA, Ab 6.25 ug/ml
SSA [13] = target: T3, SSA; assay: AtheNA, Ab 6.25 ug/ml
Scl-70 [14] = target: T4, Scl-70; assay: AtheNA, Ab 6.25 ug/ml
Sm (Smith antigen) [15] = target: T5, Sm (Smith antigen); assay: AtheNA, Ab 6.25 ug/ml
CH0505_CON D7gp120/293i = assay: ELISA
CH505w020.14D8gp120 = target: T10, CH505w020.14D8gp120; assay: ELISA
T10 construct: also called CH505w20.14 gp120

Histones [16] = target: T1, Histones; assay: AtheNA, Ab 25 ug/ml
RNP (ribonucleoprotein) [17] = target: T2, RNP (ribonucleoprotein); assay: AtheNA, Ab 25 ug/ml
SSA [18] = target: T3, SSA; assay: AtheNA, Ab 25 ug/ml
Scl-70 [19] = target: T4, Scl-70; assay: AtheNA, Ab 25 ug/ml
Sm (Smith antigen) [20] = target: T5, Sm (Smith antigen); assay: AtheNA, Ab 25 ug/ml
CH505.w30.12D8gp120 = target: T11, CH505.w30.12D8gp120; assay: ELISA
T11 construct: also called CH505w30.12 gp120

CH505w030.20D8gp120/293F = target: T12, CH505w030.20D8gp120/293F; assay: ELISA
T12 construct: also called CH505w30.20 gp120

B1: CH236 (antibody, V domains shown)
VH: QVQLVQSGAAVKRPGASVTISCRASGYTFTTYYIHWVRQAPGQRLELMGMIDPSRGRTDYAQKFQGRVTMSRDTSTSTLYMELRSLRPDDTALYYCVRNVGTEGSLLHYDYWGQGTLVTVSS
VL: EIVLTQSPATLSVSPGERVTLSCRASQSVRNNLAWYRQKRGQAPRLLIYGASTRATGIPARFSGSGSGTEFTLTISSMQSEDFAVYYCQQYNNWWTFGQGTKVEIK
notes: also called CH236_4A/293i
Question: B1 was tested. Which AtheNA signal (Histones [1]) did it give?
Answer: 234 relative luminescence units

Question: What about the AtheNA signal (RNP (ribonucleoprotein) [2]) of the same binder?
Answer: 78 relative luminescence units

Question: What about the AtheNA signal (SSA [3]) of the same binder?
Answer: 185 relative luminescence units

Question: And the AtheNA signal (Scl-70 [4])?
Answer: 50 relative luminescence units

Question: And the AtheNA signal (Sm (Smith antigen) [5])?
Answer: 258 relative luminescence units

Question: And the LogAUC (CH505w136.B18D8gp120)?
Answer: 3.51

Question: What about the IC50 [6] of the same binder?
Answer: 82.2 µg/mL

Question: What about the AtheNA signal (Histones [7]) of the same binder?
Answer: 138 relative luminescence units

Question: What about the AtheNA signal (SSA [8]) of the same binder?
Answer: 177 relative luminescence units

Question: And the AtheNA signal (Sm (Smith antigen) [9])?
Answer: 128 relative luminescence units

Question: And the LogAUC (CH505.M19D8gp120)?
Answer: 1.54

Question: And the LogAUC (CH505.M9D8gp120/293F)?
Answer: 0

Question: What about the LogAUC (CH505.M10D8gp120) of the same binder?
Answer: 6.07

Question: And the LogAUC (CH505.M5D8gp120293F)?
Answer: 7.27

Question: What about the LogAUC (CH505.M11D8gp120/293F) of the same binder?
Answer: 1.43

Question: What about the LogAUC (CH505.TF mutant gp120 M6) of the same binder?
Answer: 6.31

Question: What about the LogAUC (CH505.M7D8gp120/293F) of the same binder?
Answer: 0

Question: And the LogAUC (CH505.TF mutant gp120 M8)?
Answer: 0

Question: And the LogAUC [10]?
Answer: 0

Question: And the LogAUC (CH505.M21D8gp120/293F)?
Answer: 0

Question: What about the AtheNA signal (Histones [11]) of the same binder?
Answer: 154 relative luminescence units

Question: What about the AtheNA signal (RNP (ribonucleoprotein) [12]) of the same binder?
Answer: 40 relative luminescence units

Question: And the AtheNA signal (SSA [13])?
Answer: 44 relative luminescence units

Question: What about the AtheNA signal (Scl-70 [14]) of the same binder?
Answer: 31 relative luminescence units

Question: And the AtheNA signal (Sm (Smith antigen) [15])?
Answer: 184 relative luminescence units

Question: And the LogAUC (CH0505_CON D7gp120/293i)?
Answer: 6.89

Question: And the LogAUC (CH505w020.14D8gp120)?
Answer: 6.72

Question: And the AtheNA signal (Histones [16])?
Answer: 193 relative luminescence units

Question: And the AtheNA signal (RNP (ribonucleoprotein) [17])?
Answer: 69 relative luminescence units

Question: What about the AtheNA signal (SSA [18]) of the same binder?
Answer: 224 relative luminescence units

Question: And the AtheNA signal (Scl-70 [19])?
Answer: 62 relative luminescence units

Question: And the AtheNA signal (Sm (Smith antigen) [20])?
Answer: 165 relative luminescence units

Question: And the LogAUC (CH505.w30.12D8gp120)?
Answer: 0.95

Question: And the LogAUC (CH505w030.20D8gp120/293F)?
Answer: 6.23
